Source: the supplement of paper PMC9732359
± gives the uncertainty stated by the source.

Assay: protein stability index of a GFP-peptide fusion (yeast GPS) (PSI 1-4); higher = more stable; sorted into four equal gates, so the index is relative within each strain
Summary of the method: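 Plasmids in a pooled yeast library fused tiled 17-residue yeast protein peptides downstream of GFP and also expressed Cherry. Mid-log cultures grown without leucine were sorted into four equal gates by GFP/Cherry fluorescence ratio. Each gate's plasmids were PCR-amplified and Illumina-sequenced, and reads were matched to strains by barcodes. The protein stability index is derived by multiplying each gate's read frequency by its gate number and summing the results.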

## SVLNPFLLRRVKADVEK [ISW2]
doa10∆
  protein stability index: 1.15 ± 0.14
pdr5∆
  protein stability index: 1.09 ± 0.068
san1∆
  protein stability index: 1.18 ± 0.15
ubr1∆
  protein stability index: 1.31 ± 0.12

## SVMDPITSKRKAELLLK [DIS3]
doa10∆
  protein stability index: 2.83 ± 0.088
pdr5∆
  protein stability index: 2.76 ± 0.12
san1∆
  protein stability index: 2.55 ± 0.12
ubr1∆
  protein stability index: 2.85 ± 0.085

## SVPLMINAKNIAFASNY [RRP43]
doa10∆
  protein stability index: 1.57 ± 0.06
pdr5∆
  protein stability index: 1.53 ± 0.051
san1∆
  protein stability index: 1.27 ± 0.14
ubr1∆
  protein stability index: 1.41 ± 0.052

## SVPLVIGQFLEPIDQNT [RPT3]
doa10∆
  protein stability index: 1.88 ± 0.11
pdr5∆
  protein stability index: 2.77 ± 0.095
san1∆
  protein stability index: 2.95 ± 0.13
ubr1∆
  protein stability index: 2.71 ± 0.067

## SVQINVAKVDEEGRAIP [RPS21A]
doa10∆
  protein stability index: 3.28 ± 0.065
pdr5∆
  protein stability index: 3.23 ± 0.089
san1∆
  protein stability index: 3.31 ± 0.048
ubr1∆
  protein stability index: 3.32 ± 0.043

## SVSPQMNAILTDVKLTL [SMD1]
doa10∆
  protein stability index: 2.85 ± 0.047
pdr5∆
  protein stability index: 2.85 ± 0.062
san1∆
  protein stability index: 2.83 ± 0.04
ubr1∆
  protein stability index: 3 ± 0.057

## SVTIISAGNDKMVKAWN [ASC1]
doa10∆
  protein stability index: 2.35 ± 0.22

## SVVSQIEKGSTFGINLI [FAS1]
doa10∆
  protein stability index: 3.09 ± 0.2
pdr5∆
  protein stability index: 3.06 ± 0.11
san1∆
  protein stability index: 3 ± 0.08
ubr1∆
  protein stability index: 3.26 ± 0.076

## SWRNITNLSGGEKTLSS [SMC4]
doa10∆
  protein stability index: 3.37 ± 0.13
pdr5∆
  protein stability index: 3.21 ± 0.078
san1∆
  protein stability index: 2.81 ± 0.098
ubr1∆
  protein stability index: 3.01 ± 0.11

## SYAVSPYAQKPLQGIFH [QCR8]
doa10∆
  protein stability index: 2.51 ± 0.082
pdr5∆
  protein stability index: 2.4 ± 0.061
san1∆
  protein stability index: 2.54 ± 0.054
ubr1∆
  protein stability index: 2.6 ± 0.052

## SYDVENVNSRNQLVEPN [SRB5]
doa10∆
  protein stability index: 3.21 ± 0.12
pdr5∆
  protein stability index: 3.26 ± 0.14
san1∆
  protein stability index: 3.42 ± 0.13
ubr1∆
  protein stability index: 3.34 ± 0.12

## SYPILNESSTFLKLVLS [SIN4]
doa10∆
  protein stability index: 1.97 ± 0.035
pdr5∆
  protein stability index: 2.27 ± 0.034
san1∆
  protein stability index: 2.11 ± 0.05
ubr1∆
  protein stability index: 2.22 ± 0.031

## SYPVNGSQKTFEIDDEH [RPS6A]
doa10∆
  protein stability index: 2.98 ± 0.13
pdr5∆
  protein stability index: 2.72 ± 0.12
san1∆
  protein stability index: 2.81 ± 0.12
ubr1∆
  protein stability index: 2.99 ± 0.12

## SYRNAFTNVLTKYSDVL [YJL039C/NUP192]
doa10∆
  protein stability index: 2.12 ± 0.052
pdr5∆
  protein stability index: 1.72 ± 0.059
san1∆
  protein stability index: 2.36 ± 0.066
ubr1∆
  protein stability index: 2.13 ± 0.048

## SYVVPRLYLKDQTNHIE [ECM29]
doa10∆
  protein stability index: 2.62 ± 0.076
pdr5∆
  protein stability index: 1.83 ± 0.046
san1∆
  protein stability index: 2.83 ± 0.056
ubr1∆
  protein stability index: 2.15 ± 0.033

## TAAYARTIGIAVDHRRQ [RPL13A]
doa10∆
  protein stability index: 1.58 ± 0.077
pdr5∆
  protein stability index: 1.58 ± 0.05
san1∆
  protein stability index: 1.22 ± 0.088
ubr1∆
  protein stability index: 1.77 ± 0.055

## TAEFGKILAGLHDTQIE [RPN10]
doa10∆
  protein stability index: 3.23 ± 0.11
pdr5∆
  protein stability index: 3.44 ± 0.11
san1∆
  protein stability index: 3.13 ± 0.14
ubr1∆
  protein stability index: 3.02 ± 0.1

## TANALPLPAVFSAPIRP [RPL4A]
doa10∆
  protein stability index: 1.79 ± 0.042
pdr5∆
  protein stability index: 2.1 ± 0.042
san1∆
  protein stability index: 1.87 ± 0.065
ubr1∆
  protein stability index: 1.98 ± 0.04

## TAQKYPIYTGDGWVKLT [YMR153W/NUP53]
doa10∆
  protein stability index: 1.63 ± 0.062
pdr5∆
  protein stability index: 1.77 ± 0.06
san1∆
  protein stability index: 1.62 ± 0.1
ubr1∆
  protein stability index: 1.21 ± 0.041

## TARINNRRLFKKCIDFF [RRI2]
doa10∆
  protein stability index: 2 ± 0.082
pdr5∆
  protein stability index: 2.18 ± 0.059
san1∆
  protein stability index: 1.91 ± 0.11
ubr1∆
  protein stability index: 2.18 ± 0.054

## TARVMGGLKNGVLYQGN [DIS3]
doa10∆
  protein stability index: 3.19 ± 0.069
pdr5∆
  protein stability index: 3.3 ± 0.071
san1∆
  protein stability index: 3.06 ± 0.047
ubr1∆
  protein stability index: 3.13 ± 0.056

## TATASLGVIHKGNLLEG [RPN2]
doa10∆
  protein stability index: 2.96 ± 0.16
pdr5∆
  protein stability index: 1.84 ± 0.082
san1∆
  protein stability index: 1.98 ± 0.16
ubr1∆
  protein stability index: 2.72 ± 0.081

## TCQILESGEDEAEFSLR [RRP46]
pdr5∆
  protein stability index: 2.62 ± 0.28
ubr1∆
  protein stability index: 3.46 ± 0.19

## TDIKQFLELTRRADVKT [RPL38]
doa10∆
  protein stability index: 2.95 ± 0.17
pdr5∆
  protein stability index: 3.29 ± 0.17

## TDKIGRSVPAPGKGILT [FAS2]
doa10∆
  protein stability index: 2.95 ± 0.17
pdr5∆
  protein stability index: 3.16 ± 0.13
san1∆
  protein stability index: 2.79 ± 0.2
ubr1∆
  protein stability index: 3.21 ± 0.12

## TDKKAFLGALKYLPHAI [PRP8]
doa10∆
  protein stability index: 2.94 ± 0.12
pdr5∆
  protein stability index: 2.92 ± 0.097
san1∆
  protein stability index: 3.19 ± 0.072
ubr1∆
  protein stability index: 2.96 ± 0.054

## TDKSNSPIGFTNSPQIS [SMC2]
doa10∆
  protein stability index: 3.02 ± 0.05
pdr5∆
  protein stability index: 3.16 ± 0.054
san1∆
  protein stability index: 3.03 ± 0.043
ubr1∆
  protein stability index: 3.03 ± 0.043

## TDQSTEEEKSVDASPND [CSL4]
doa10∆
  protein stability index: 2.88 ± 0.2
pdr5∆
  protein stability index: 2.8 ± 0.21
ubr1∆
  protein stability index: 3.06 ± 0.17

## TDSSALTYDRLEFATIR [PRE9]
doa10∆
  protein stability index: 3.07 ± 0.081
pdr5∆
  protein stability index: 3.27 ± 0.076
san1∆
  protein stability index: 3.01 ± 0.056
ubr1∆
  protein stability index: 3.18 ± 0.045

## TDSWESFFVSVRKAITV [FAS1]
doa10∆
  protein stability index: 2.76 ± 0.27
pdr5∆
  protein stability index: 2.4 ± 0.17

## TEEKCKNFIESESVGAF [YJL039C/NUP192]
doa10∆
  protein stability index: 3.43 ± 0.15
pdr5∆
  protein stability index: 3.23 ± 0.088
san1∆
  protein stability index: 3.33 ± 0.062
ubr1∆
  protein stability index: 3.47 ± 0.056

## TEFSKNDLEVGVATKDK [SCL1]
doa10∆
  protein stability index: 2.95 ± 0.079
pdr5∆
  protein stability index: 3.03 ± 0.068
san1∆
  protein stability index: 2.63 ± 0.088
ubr1∆
  protein stability index: 2.71 ± 0.075

## TEGRSRDGGLRLGEMER [RET1]
doa10∆
  protein stability index: 1.35 ± 0.081
pdr5∆
  protein stability index: 1.82 ± 0.12
san1∆
  protein stability index: 1.49 ± 0.28
ubr1∆
  protein stability index: 1.58 ± 0.071

## TEHLTELSDNEENFEAT [YCG1]
doa10∆
  protein stability index: 2.87 ± 0.14
pdr5∆
  protein stability index: 3.15 ± 0.16
san1∆
  protein stability index: 3.54 ± 0.099
ubr1∆
  protein stability index: 2.96 ± 0.12

## TEKLKISPESVFGTLGE [SMC3]
doa10∆
  protein stability index: 1.99 ± 0.087
pdr5∆
  protein stability index: 2.34 ± 0.066
san1∆
  protein stability index: 2.09 ± 0.095
ubr1∆
  protein stability index: 1.99 ± 0.032

## TEKMEEQLDLLSAILDP [MED11]
doa10∆
  protein stability index: 3.14 ± 0.087
pdr5∆
  protein stability index: 3 ± 0.1
san1∆
  protein stability index: 3.13 ± 0.12
ubr1∆
  protein stability index: 3.4 ± 0.1

## TELRQLFQENDDDDDDD [DSN1]
doa10∆
  protein stability index: 2.03 ± 0.063
pdr5∆
  protein stability index: 2.36 ± 0.071
san1∆
  protein stability index: 2.24 ± 0.11
ubr1∆
  protein stability index: 2.38 ± 0.092

## TENEKFISYHDKYLCML [NUT1]
doa10∆
  protein stability index: 2.91 ± 0.056
pdr5∆
  protein stability index: 3 ± 0.055
san1∆
  protein stability index: 3.23 ± 0.049
ubr1∆
  protein stability index: 3.11 ± 0.053

## TEQIKMRILSNDITNLQ [SRB8]
doa10∆
  protein stability index: 2.33 ± 0.042
pdr5∆
  protein stability index: 2.31 ± 0.037
san1∆
  protein stability index: 2.15 ± 0.043
ubr1∆
  protein stability index: 2.16 ± 0.029

## TETSNEDEDEDDETPSC [SNU114]
doa10∆
  protein stability index: 2.68 ± 0.067
pdr5∆
  protein stability index: 2.75 ± 0.058
san1∆
  protein stability index: 3.02 ± 0.055
ubr1∆
  protein stability index: 2.74 ± 0.046

## TEVIIRATRTQDVLGEN [RPS3]
doa10∆
  protein stability index: 3.42 ± 0.26
pdr5∆
  protein stability index: 2.92 ± 0.12
san1∆
  protein stability index: 3.14 ± 0.13
ubr1∆
  protein stability index: 3.35 ± 0.079

## TEVRAEDEAALAKLVST [RPL8A]
doa10∆
  protein stability index: 2.9 ± 0.062
pdr5∆
  protein stability index: 2.93 ± 0.06
san1∆
  protein stability index: 2.59 ± 0.055
ubr1∆
  protein stability index: 2.74 ± 0.048

## TEYFENKQSVSNLSPDL [DSN1]
doa10∆
  protein stability index: 3.48 ± 0.13
pdr5∆
  protein stability index: 3.4 ± 0.1
san1∆
  protein stability index: 3.34 ± 0.089
ubr1∆
  protein stability index: 3.58 ± 0.058

## TFENINSLFYLKWSACT [IRR1]
doa10∆
  protein stability index: 1.26 ± 0.082
pdr5∆
  protein stability index: 1.35 ± 0.082
san1∆
  protein stability index: 1.27 ± 0.17
ubr1∆
  protein stability index: 1.21 ± 0.051

## TFEQFKDTIVKEAEDKT [RPC37]
ubr1∆
  protein stability index: 2.43 ± 0.29

## TFHHHGRQTVLIKDNSA [SRB2]
doa10∆
  protein stability index: 1.92 ± 0.25
pdr5∆
  protein stability index: 2.52 ± 0.21
ubr1∆
  protein stability index: 2.56 ± 0.24

## TFIYGYCDKNFRENMSK [PRE3]
doa10∆
  protein stability index: 2.12 ± 0.079
pdr5∆
  protein stability index: 2.17 ± 0.066
san1∆
  protein stability index: 2.21 ± 0.092
ubr1∆
  protein stability index: 2.65 ± 0.053

## TFKDGVILGADSRTTTG [PRE3]
pdr5∆
  protein stability index: 2.8 ± 0.12
san1∆
  protein stability index: 2.69 ± 0.19
ubr1∆
  protein stability index: 2.59 ± 0.14

## TFLVSNDDEVSQFCYVS [RPN14]
doa10∆
  protein stability index: 2 ± 0.13
pdr5∆
  protein stability index: 2.55 ± 0.23
san1∆
  protein stability index: 2.28 ± 0.13

## TFNSKPVRTIVPISTSQ [SIR4]
doa10∆
  protein stability index: 2.32 ± 0.037
pdr5∆
  protein stability index: 2.46 ± 0.037
san1∆
  protein stability index: 2.42 ± 0.039
ubr1∆
  protein stability index: 2.35 ± 0.028

## TFPVGRVHRLLRRGNYA [HTA1]
doa10∆
  protein stability index: 2.38 ± 0.13
pdr5∆
  protein stability index: 2.86 ± 0.14
san1∆
  protein stability index: 2.5 ± 0.087
ubr1∆
  protein stability index: 2.27 ± 0.12
